The source of these data is the supplement of paper PMC10724198.

The data set deals with Saccharomyces cerevisiae. The data set is described as follows: protein stability index of tFT-peptide fusion (C-terminal peptide) (PSI (0-1 scale)); higher = more stable (slower turnover). The conditions noted are these: temperature: 30 C. As to the method: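 MPS profiling in S. cerevisiae of the yeast C-terminome library: the last 12 aa of each annotated ORF are fused to the C-terminus of a sfGFP-mCherry timer, after a GGGS linker. Cells are FACS-sorted into 8 mCherry/sfGFP bins and deep-sequenced. PSI runs from 0 (unstable) to 1 (stable); wild type and das1Δ backgrounds, two technical replicates each.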

[1] abbreviates: genetic background: das1 deletion.

± gives the standard deviation of the averaged measurements.

For DNFMNNSDIFQN [TGL5 C-terminal 12 aa], the protein stability index came out at 0.741 ± 0.027 under setting [1] and 0.686 ± 0.0082 (genetic background: wild type).
For DPSKLRRVPVIQ [RGL1 C-terminal 12 aa], the protein stability index reads like this: under setting [1], 0.69 ± 0.018; (genetic background: wild type) 0.687 ± 0.066.
The like results for DQAKDASPNAKK [RGM1 C-terminal 12 aa] were, in that order, 0.694 ± 0.0073 and 0.673 ± 0.011.
With DRKQSQATNATN [ARP7 C-terminal 12 aa], the protein stability index under setting [1] is 0.687 ± 0.016 and the protein stability index (genetic background: wild type) amounted to 0.671 ± 0.0046.
The like results for DRVQRAFPKPDT [GLG2 C-terminal 12 aa] were, in that order, 0.704 ± 0.016 and 0.686 ± 0.032.
On to DSEEKKSKKSKK [CBF5 C-terminal 12 aa], for which the protein stability index reads like this: under setting [1], 0.669 ± 0.056; (genetic background: wild type) 0.6785 ± 0.0045.
The corresponding values for DSHEDMKRRRLE [ROX3 C-terminal 12 aa] are 0.6865 ± 0.0045 and 0.695 ± 0.0078.
Consider DSIRRIREKYSN [APP1 C-terminal 12 aa], for which the protein stability index came to 0.6896 ± 0.0039 under setting [1] and 0.492 ± 0.013 (genetic background: wild type).
With DTFFDRVMKVLT [NAN1 C-terminal 12 aa], the protein stability index is, setting by setting: under setting [1], 0.707 ± 0.034; (genetic background: wild type) 0.6917 ± 0.0012.
As for DVLDDLYRKLQR [CSE2 C-terminal 12 aa], the protein stability index stood at 0.7138 ± 8.1e-05 under setting [1] and 0.699 ± 0.02 (genetic background: wild type).
The corresponding values for DWQNGQVEDSIP [PEX14 C-terminal 12 aa] are 0.711 ± 0.023 and 0.672 ± 0.0079.
For the sequence DYKLRELIYDTI [AIP5 C-terminal 12 aa], the protein stability index is 0.7014 ± 0.0011 under setting [1] and 0.661 ± 0.018 (genetic background: wild type).
On to DYSFVNTFRDYE [HAL9 C-terminal 12 aa], for which the protein stability index is, setting by setting: under setting [1], 0.697 ± 0.022; (genetic background: wild type) 0.736 ± 0.053.
With EAAKKSEKKAKK [RPL34A C-terminal 12 aa], the protein stability index by setting is: under setting [1], 0.695 ± 0.0092; (genetic background: wild type) 0.689 ± 0.023.
The like results for EAAKYFREQYKN [MET6 C-terminal 12 aa] were, in that order, 0.7045 ± 0.0028 and 0.7172 ± 0.0068.
The sequence EATIENLKRLKL [VAS1 C-terminal 12 aa] came in with a protein stability index under setting [1] of 0.693 ± 0.016 and a protein stability index (genetic background: wild type) of 0.642 ± 0.0087.
For the sequence ECPGGCPGVAFI [RTC1 C-terminal 12 aa], the protein stability index is, setting by setting: under setting [1], 0.7077 ± 0.0053; (genetic background: wild type) 0.685 ± 0.024.
For the sequence EDDITVVVVRVD [PTC7 C-terminal 12 aa], the protein stability index was determined as 0.646 ± 0.019 under setting [1] and 0.673 ± 0.02 (genetic background: wild type).
As for EDEFLINSDDEM [CUE5 C-terminal 12 aa], the protein stability index is, setting by setting: under setting [1], 0.726 ± 0.064; (genetic background: wild type) 0.716 ± 0.037.
The like results for EDWSVEELIVDL [RPO26 C-terminal 12 aa] were, in that order, 0.681 ± 0.009 and 0.71 ± 0.022.
As to EEANEDEEEDDW [MYO5 C-terminal 12 aa], the protein stability index reads like this: under setting [1], 0.6825 ± 0.0025; (genetic background: wild type) 0.706 ± 0.015.
With EEEAGYSDVEME [UTP5 C-terminal 12 aa], the protein stability index amounted to 0.6936 ± 0.005 under setting [1] and 0.698 ± 0.013 (genetic background: wild type).
In the case of EEEKRRRKKGIR [SPT2 C-terminal 12 aa], the protein stability index by setting is: under setting [1], 0.706 ± 0.022; (genetic background: wild type) 0.662 ± 0.0095.
EEGEVVEEEAEK [HSP78 C-terminal 12 aa]: the protein stability index was 0.678 ± 0.022 under setting [1] and 0.6852 ± 0.0044 (genetic background: wild type).
For EELEAEQIDVFS [PRP8 C-terminal 12 aa], the protein stability index reads like this: under setting [1], 0.689 ± 0.023; (genetic background: wild type) 0.684 ± 0.02.
For EELFEEDSFYKY [NDT80 C-terminal 12 aa], the protein stability index was 0.736 ± 0.011 under setting [1] and 0.759 ± 0.019 (genetic background: wild type).
As to EEPQLDLLDDVL [MTW1 C-terminal 12 aa], the protein stability index came to 0.706 ± 0.03 under setting [1] and 0.709 ± 0.084 (genetic background: wild type).
For EESEKQLYTVLK [CUS1 C-terminal 12 aa], the protein stability index under setting [1] stood at 0.688 ± 0.0087 and the protein stability index (genetic background: wild type) stood at 0.676 ± 0.01.
Turning to EETLEFDPTLLV [YBL062W C-terminal 12 aa], the protein stability index was determined as 0.707 ± 0.0077 under setting [1] and 0.692 ± 0.023 (genetic background: wild type).
Turning to EFEENPNPTVEN [HSP42 C-terminal 12 aa], the protein stability index under setting [1] is 0.731 ± 0.033 and the protein stability index (genetic background: wild type) is 0.702 ± 0.054.
The like results for EFHQDFFSKYRN [ALT2 C-terminal 12 aa] were, in that order, 0.707 ± 0.011 and 0.729 ± 0.027.
As to EGENVRSKVERF [YKL070W C-terminal 12 aa], the protein stability index by setting is: under setting [1], 0.7262 ± 0.0046; (genetic background: wild type) 0.704 ± 0.053.
In turn, EGKEEIIYDSEG [RAD55 C-terminal 12 aa] came in with a protein stability index under setting [1] of 0.6913 ± 0.006 and a protein stability index (genetic background: wild type) of 0.677 ± 0.047.
The sequence EGSGEFVGEMEI [MRS6 C-terminal 12 aa] yielded a protein stability index under setting [1] of 0.708 ± 0.0019 and a protein stability index (genetic background: wild type) of 0.714 ± 0.067.
On to EHTMLAKAQGHD [XPT1 C-terminal 12 aa], for which the protein stability index under setting [1] amounted to 0.71 ± 0.022 and the protein stability index (genetic background: wild type) worked out at 0.6558 ± 0.0011.
Consider EIDGQFCIFQVV [YJL107C C-terminal 12 aa], for which the protein stability index turned out to be 0.711 ± 0.013 under setting [1] and 0.647 ± 0.031 (genetic background: wild type).
EIKPYLRFTKSK [PRX1 C-terminal 12 aa]: the protein stability index is, setting by setting: under setting [1], 0.692 ± 0.011; (genetic background: wild type) 0.718 ± 0.085.
On to EIRKRRASSLKA [RPS6A C-terminal 12 aa], for which the protein stability index is, setting by setting: under setting [1], 0.649 ± 0.021; (genetic background: wild type) 0.646 ± 0.0092.
In the case of EKIKRDLALKKG [PET100 C-terminal 12 aa], the protein stability index was determined as 0.697 ± 0.045 under setting [1] and 0.661 ± 0.059 (genetic background: wild type).
In the case of EKLAALVENAEV [PUF3 C-terminal 12 aa], the protein stability index is, setting by setting: under setting [1], 0.68 ± 0.0089; (genetic background: wild type) 0.679 ± 0.04.
As for “EKLQLWHSMSND [YOR008C-A C-terminal 12 aa]”, the protein stability index under setting [1] was 0.698 ± 0.0035 and the protein stability index (genetic background: wild type) worked out at 0.72 ± 0.033.
Take ELKAHNINVVDK [PNC1 C-terminal 12 aa]: the protein stability index worked out at 0.662 ± 0.037 under setting [1] and 0.675 ± 0.044 (genetic background: wild type).
The like results for ELNEEKRRSALP [SAK1 C-terminal 12 aa] were, in that order, 0.687 ± 0.023 and 0.686 ± 0.016.
The corresponding values for ELQEKVEQLSKW [POL3 C-terminal 12 aa] are 0.7208 ± 0.00089 and 0.688 ± 0.026.
For the sequence ELYNIIVKSVPK [YRB2 C-terminal 12 aa], the protein stability index under setting [1] stood at 0.673 ± 0.0039 and the protein stability index (genetic background: wild type) was 0.695 ± 0.045.
On to EMTHSLFKKYGI [CRC1 C-terminal 12 aa], for which the protein stability index runs as follows: under setting [1], 0.705 ± 0.017; (genetic background: wild type) 0.722 ± 0.047.
In turn, ENFNEVFEAIRS [RSC3 C-terminal 12 aa] showed a protein stability index under setting [1] of 0.6822 ± 0.0037 and a protein stability index (genetic background: wild type) of 0.709 ± 0.016.
The like results for ENFSSALQSPIF [YDL152W C-terminal 12 aa] were, in that order, 0.733 ± 0.0084 and 0.754 ± 0.055.
In the case of ENVLFYIGRVNK [COB C-terminal 12 aa], the protein stability index runs as follows: under setting [1], 0.726 ± 0.026; (genetic background: wild type) 0.669 ± 0.017.
Regarding EPYNIKYSNSKK [MSD1 C-terminal 12 aa], the protein stability index runs as follows: under setting [1], 0.7 ± 0.03; (genetic background: wild type) 0.66695 ± 2.1e-06.
As for EQLADYLIGVQY [PFY1 C-terminal 12 aa], the protein stability index is, setting by setting: under setting [1], 0.686 ± 0.014; (genetic background: wild type) 0.6754 ± 0.0032.
Take EQQNFEKCNEYI [NPL6 C-terminal 12 aa]: the protein stability index is, setting by setting: under setting [1], 0.691 ± 0.01; (genetic background: wild type) 0.655 ± 0.007.
Turning to EQVRFKNINYKS [AZF1 C-terminal 12 aa], the protein stability index was 0.654 ± 0.0011 under setting [1] and 0.673 ± 0.014 (genetic background: wild type).
As for ERAYMYYLRNGK [NAM9 C-terminal 12 aa], the protein stability index was determined as 0.656 ± 0.023 under setting [1] and 0.625 ± 0.021 (genetic background: wild type).
For ERCSLQNPFYSI [YNR066C C-terminal 12 aa], the protein stability index is, setting by setting: under setting [1], 0.7315 ± 0.0067; (genetic background: wild type) 0.696 ± 0.0016.
Consider ERTSLLSGETQT [YPQ2 C-terminal 12 aa], for which the protein stability index was 0.67739 ± 0.00033 under setting [1] and 0.684 ± 0.014 (genetic background: wild type).
In the case of ESEYREQQQNPQ [SHQ1 C-terminal 12 aa], the protein stability index came out at 0.688 ± 0.017 under setting [1] and 0.686 ± 0.085 (genetic background: wild type).
ESFVECFESFIE [PBI1 C-terminal 12 aa] had a protein stability index under setting [1] of 0.714 ± 0.03 and a protein stability index (genetic background: wild type) of 0.682 ± 0.033.
The corresponding values for ESGPSIVHHKCF [ACT1 C-terminal 12 aa] are 0.6875 ± 0.003 and 0.6963 ± 0.0026.
In the case of ESTHKEAMGEKN [MNN5 C-terminal 12 aa], the protein stability index worked out at 0.648 ± 0.014 under setting [1] and 0.675 ± 0.016 (genetic background: wild type).
EVEKIVKKVLKD [DBP5 C-terminal 12 aa]: the protein stability index by setting is: under setting [1], 0.7225 ± 0.0038; (genetic background: wild type) 0.6553 ± 0.0058.
In the case of EWTKLYAKKKPE [UBC13 C-terminal 12 aa], the protein stability index was 0.6853 ± 0.0049 under setting [1] and 0.711 ± 0.01 (genetic background: wild type).
The like results for EYEYEDDGLFER [GCD1 C-terminal 12 aa] were, in that order, 0.695 ± 0.017 and 0.692 ± 0.029.
On to “FEGKPLYQMLKI [YAL047W-A C-terminal 12 aa]”, for which the protein stability index reads like this: under setting [1], 0.638 ± 0.031; (genetic background: wild type) 0.551 ± 0.011.
In the case of FFFLLTSLLSPF [LCL1 C-terminal 12 aa], the protein stability index reads like this: under setting [1], 0.637 ± 0.029; (genetic background: wild type) 0.592 ± 0.0065.
As to FFKQAEQEQADV [PRP11 C-terminal 12 aa], the protein stability index turned out to be 0.7024 ± 0.001 under setting [1] and 0.698 ± 0.0072 (genetic background: wild type).
With “FFRYFTFSSSYW [YDR464C-A C-terminal 12 aa]”, the protein stability index came to 0.7002 ± 0.004 under setting [1] and 0.661 ± 0.022 (genetic background: wild type).
The corresponding values for FFSKKRPNIDSK [YOL037C C-terminal 12 aa] are 0.696 ± 0.011 and 0.684 ± 0.058.
